This note sets out measurements from paper PMC7729032, “Interaction interface in the C-terminal parts of centriole proteins Sas6 and Ana2” (Open Biology, 2020).

This assay has as its target T1, MBP-Sas6 wild-type (Drosophila, UniProt Q9VAC8 1-472).
T1 construct: Sas6, Drosophila, wild type; MBP from destination vector pKM596 (Gateway); No cleavage of MBP is described; also called Sas6-wt; source: E. coli Rosetta(DE3); in lysate (pull-down); purified on amylose resin and SEC (SEC, HDX-MS)
T1 sequence (looked up): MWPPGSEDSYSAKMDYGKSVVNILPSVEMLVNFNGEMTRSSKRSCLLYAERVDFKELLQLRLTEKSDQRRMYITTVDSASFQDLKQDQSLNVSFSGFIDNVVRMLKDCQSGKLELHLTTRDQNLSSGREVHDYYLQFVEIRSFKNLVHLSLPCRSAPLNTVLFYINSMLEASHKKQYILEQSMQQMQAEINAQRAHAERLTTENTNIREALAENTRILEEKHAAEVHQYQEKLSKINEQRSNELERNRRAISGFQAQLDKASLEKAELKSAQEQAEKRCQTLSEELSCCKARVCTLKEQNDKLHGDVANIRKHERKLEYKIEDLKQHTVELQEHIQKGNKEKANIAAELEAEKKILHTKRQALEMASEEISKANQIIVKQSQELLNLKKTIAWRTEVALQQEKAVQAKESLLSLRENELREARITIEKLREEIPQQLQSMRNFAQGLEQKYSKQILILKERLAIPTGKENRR
Put plainly: SEC; MBP-Ana2-4D mixed with MBP-Sas6, at least 1 h on ice, Superdex 200 10/300; 20 mM Tris–HCl pH 7.5, 150 mM NaCl, 1 mM DTT, 4°C. The settings on record: both partners purified.

B1: MBP-Ana2-4D (natural protein, Drosophila, UniProt Q9XZ31 1-420, looked up)
chain: MFVPETEDMLPRLAPRPSAAVPMGHTNEIIGPTVPEVSILFGQPPQDPQMQPQQPNHAHQESSPRAAPTFASWKKQMLPRVNFSPILATELGPRTAPSSNSPCSSKEYQVMPRDRNYASDAQQTTNHMNCNAGGYNAEPKQQAYQSRRLSSSSNADVLTICAGTQTDPFNPSPPRKSLPQVVYSDIDVSNLANKSDLAALVSLVESVRHEQQQLRNLCEMILEQQQRAKPEAISKASSTTGTQCDILTTNQAGRRLSPIMQDYIAEEEEPLPPPQARVIPQFPSPRPHPPIAQSTGYRANTPQAKRIPQLAKPNTEKDMVMNELALKYLRQPVDELMKDMRLGASPKSPNPEPLRPIDNIGHAQDPNDIDNADYKYLKKYRLLPEEQLEPVCPQSPMAATAPSPHIQLDLENIRNQPKLL
notes: Ana2, Drosophila; STAN motif serines 318, 365, 370 and 373 substituted by aspartic acid; MBP from destination vector pKM596; As prey against Gorab bait the MBP tag follows from the general methods of the pull-down; also called Ana2-4D-FL; source: E. coli Rosetta(DE3); purified on amylose resin and SEC (SEC, HDX-MS); in lysate (pull-down prey)
In the case of B1, the binding result was “binds”.
